# Assay results as given in the Immune Epitope Database (IEDB).
# pKd: −log10 of the molar value.
# What was measured:
# HLA-B*18:01 = test: IEDB peptide-MHC binding, purified MHC/direct/fluorescence; filed as Kd, often an IC50 or EC50 that approximates it; ≥ and ≤ were set here for values at or beyond the usual limits of such assays
# HLA-B*44:02 = test: as above
# HLA-B*44:03 = test: IEDB peptide-MHC binding, purified MHC/competitive/radioactivity; filed as Kd, often an IC50 or EC50 that approximates it; ≥ and ≤ were set here for values at or beyond the usual limits of such assays; details: source organism: Dengue virus 1 Brazil/97-11/1997
# HLA-B*51:01 = test: as above
# HLA-B*08:01 [1] = test: as above
# HLA-A*30:02 = test: as above
# HLA-A*26:01 = test: as above
# HLA-A*01:01 [2] = test: as above
# HLA-A*30:01 = test: as above
# HLA-A*31:01 [3] = test: as above; details: source organism: Mammarenavirus choriomeningitidis
# HLA-A*03:01 [4] = test: as above; details: source organism: Mammarenavirus choriomeningitidis
# HLA-A*33:01 = test: as above; details: source organism: Mammarenavirus choriomeningitidis
# HLA-A*68:01 = test: as above; details: source organism: Mammarenavirus choriomeningitidis
# HLA-A*31:01 [5] = test: IEDB peptide-MHC binding, purified MHC/direct/fluorescence; filed as Kd, often an IC50 or EC50 that approximates it; ≥ and ≤ were set here for values at or beyond the usual limits of such assays; details: source organism: Entamoeba histolytica HM-1:IMSS
# HLA-A*03:01 [6] = test: as above
# HLA-A*32:01 = test: IEDB peptide-MHC binding, purified MHC/competitive/radioactivity; filed as Kd, often an IC50 or EC50 that approximates it; ≥ and ≤ were set here for values at or beyond the usual limits of such assays
# HLA-A*29:02 = test: as above
# HLA-B*53:01 = test: as above
# HLA-B*58:01 = test: IEDB peptide-MHC binding, purified MHC/direct/fluorescence; filed as Kd, often an IC50 or EC50 that approximates it; ≥ and ≤ were set here for values at or beyond the usual limits of such assays; details: source organism: Escherichia coli O157:H7
# HLA-B*27:05 = test: as above; details: source organism: Escherichia coli O157:H7
# HLA-A*02:01 = test: as above; details: source organism: Escherichia coli O157:H7
# HLA-B*40:01 = test: as above; details: source organism: Escherichia coli O157:H7
# HLA-B*07:02 = test: as above; details: source organism: Escherichia coli O157:H7
# HLA-A*01:01 [7] = test: as above; details: source organism: Escherichia coli O157:H7
# HLA-B*15:01 = test: as above; details: source organism: Escherichia coli O157:H7
# HLA-B*08:01 [8] = test: as above; details: source organism: Coxiella burnetii Q321
# [9] = source organism: Dengue virus 1 Singapore/S275/1990
# [10] = source organism: Dengue virus 3 Martinique/1243/1999
# [11] = source organism: Vaccinia virus WR
# [12] = source organism: Dengue virus 4 Philippines/H241/1956
# [13] = source organism: Mammarenavirus juninense
# [14] = source organism: Dengue virus 2 Jamaica/1409/1983
# [15] = source organism: Mammarenavirus brazilense
# [16] = source organism: West Nile virus
# [17] = source organism: Dengue virus 2 Peru/IQT2913/1996
# [18] = source organism: Escherichia coli O157:H7
sequence,measurement,setting,value
LEFFLMVLL,pKd,HLA-B*18:01; [9],6.72
same,pKd,HLA-B*44:02; [9],≤ 4.70
same,pKd,HLA-B*44:03,4.81
LGLMALKLI,pKd,HLA-B*51:01; [10],5.08
LKGMSYAMCL,pKd,HLA-B*08:01 [1]; source organism: Dengue virus 3 Singapore/8120/1995,6.36
LLKLGFEEI,pKd,HLA-B*08:01 [1]; [11],6.29
LLQMENKAWL,pKd,HLA-B*08:01 [1]; source organism: Dengue virus 2 16681-PDK53,6.55
LMLVALLGAM,pKd,HLA-B*08:01 [1]; [12],5.14
LPLPWTSGAT,pKd,HLA-B*51:01; [10],≤ 4.67
LTEIASLPTY,pKd,HLA-A*30:02; [12],6.65
same,pKd,HLA-A*26:01; [12],6.05
same,pKd,HLA-A*01:01 [2]; [12],8.86
same,pKd,HLA-A*30:01; [12],5.03
LVSFLLLAGR,pKd,HLA-A*31:01 [3],8.03
same,pKd,HLA-A*03:01 [4],6.10
same,pKd,HLA-A*33:01,6.82
same,pKd,HLA-A*68:01,7.44
same,pKd,HLA-A*30:01; source organism: Mammarenavirus choriomeningitidis,5.02
LWNFIHQQR,pKd,HLA-A*31:01 [5],7.91
same,pKd,HLA-A*03:01 [6]; source organism: Entamoeba histolytica HM-1:IMSS,≤ 4.70
LYDVIPVTY,pKd,HLA-A*32:01; [13],≤ 4.11
same,pKd,HLA-A*30:02; [13],5.38
same,pKd,HLA-A*26:01; [13],≤ 4.11
same,pKd,HLA-A*29:02; [13],6.43
same,pKd,HLA-A*01:01 [2]; [13],6.84
same,pKd,HLA-A*30:01; [13],≤ 4.11
MFFIRFGKM,pKd,HLA-B*08:01 [1]; [11],7.50
MGLGKGWPL,pKd,HLA-B*08:01 [1]; [14],8.06
MIDNQKLSY,pKd,HLA-A*32:01; [15],≤ 4.21
same,pKd,HLA-A*30:02; [15],6.07
same,pKd,HLA-A*26:01; [15],≤ 4.46
same,pKd,HLA-A*29:02; [15],6.97
same,pKd,HLA-A*01:01 [2]; [15],8.02
same,pKd,HLA-A*30:01; [15],≤ 4.46
MMKWIISIL,pKd,HLA-B*08:01 [1]; [11],8.89
MVKPKGKVV,pKd,HLA-B*08:01 [1]; [12],7.35
NEVEVITKL,pKd,HLA-B*18:01; [16],8.20
NPHLPEKKI,pKd,HLA-B*51:01; [10],≤ 4.54
NPSFKRQII,pKd,HLA-B*08:01 [1]; [11],7.71
NRRRRTAGV,pKd,HLA-B*08:01 [1]; [14],6.92
QPESNILDI,pKd,HLA-B*51:01; [17],≤ 4.33
same,pKd,HLA-B*53:01; [17],6.00
QYIFTGQPLN,pKd,HLA-A*30:01; [10],5.05
RADRVIDPRR,pKd,HLA-A*30:01; source organism: Dengue virus 1 Brazil/97-11/1997,5.71
RARISQGAG,pKd,HLA-A*30:01; [14],6.90
REDIWCGSL,pKd,HLA-B*18:01; [16],5.15
RLKTRIRNL,pKd,HLA-B*08:01 [1]; [11],9.16
RTKIPLSKV,pKd,HLA-A*30:01; [11],8.38
RTRNALDNL,pKd,HLA-A*30:01; [10],8.48
SINVKHTSV,pKd,HLA-B*08:01 [1]; [11],7.88
SMYQLMITI,pKd,HLA-B*58:01,≤ 4.70
same,pKd,HLA-B*27:05,≤ 4.70
same,pKd,HLA-A*02:01,6.08
same,pKd,HLA-A*03:01 [6]; [18],≤ 4.70
same,pKd,HLA-B*40:01,≤ 5.00
same,pKd,HLA-B*07:02,≤ 4.70
same,pKd,HLA-B*44:02; [18],≤ 4.70
same,pKd,HLA-A*01:01 [7],≤ 4.70
same,pKd,HLA-B*15:01,≤ 4.70
SNKRKVLAI,pKd,HLA-B*08:01 [1]; [11],8.73
SPCKIPFEI,pKd,HLA-B*51:01; [14],≤ 4.32
same,pKd,HLA-B*53:01; [14],5.89
SPLSKCVVV,pKd,HLA-B*08:01 [1]; [11],7.51
TFIRSTMPLV,pKd,HLA-A*30:01; [12],6.59
TTRNGEPHM,pKd,HLA-A*30:01; [14],5.92
VAFLRFLTI,pKd,HLA-B*08:01 [1]; [14],7.98
same,pKd,HLA-B*51:01; [14],8.72
VEAGLIDTY,pKd,HLA-B*18:01; source organism: Vibrio vulnificus YJ016,≤ 4.70
VRQMEGEGVL,pKd,HLA-B*08:01 [1]; source organism: Dengue virus 3 Sri Lanka/1266/2000,5.77
YLKAKREKL,pKd,HLA-B*08:01 [8],6.84
YNKQSLVSL,pKd,HLA-B*08:01 [1]; [11],7.52
